The record followed here is paper PMC5480393 (Cell, 2017).

Series [1] deals with the molecule itself. Nature of the series: crystal structure.
Series [2] concerns the molecule itself. Put plainly: crystal structure. This is another data set of the same source.

Where two headings read alike, the source gives them in different places.

B1: VR3 (red abalone VERL repeat 3 without the interdomain linker) (domain or fragment)
chain: DWDVYCSQDESIPAKFISRLVTSKDQALEKTEINCSNGLVPITQEFGINMMLIQYTRNELLDSPGMCVFWGPYSVPKNDTVVLYTVTARLKWSEGPPTNLSIQCYMPKSPVAPK
In the case of B1, the binding result in the series “crystal structure [1]” is recorded as “binds”.

B2: mMBP-VR3 (mammalianized maltose-binding protein fusion of VERL repeat 3) (domain or fragment)
chain: DWDVYCSQDESIPAKFISRLVTSKDQALEKTEINCSNGLVPITQEFGINMMLIQYTRNELLDSPGMCVFWGPYSVPKNDTVVLYTVTARLKWSEGPPTNLSIQCYMPKSPVAPK
With B2, the binding result in the series “crystal structure [2]” is reported as “binds”.
